In paper PMC4546058, “The Energetics of Streptococcal Enolase Octamer Formation: The Quantitative Contributions of the Last Eight Amino Acids at the Carboxy-Terminus” (PLoS ONE, 2015):

Target: the molecule itself
Test: AUC; sedimentation velocity, Beckman XL-I, 20°C, 30 000-37 000 RPM, TME-SO4 (50 mM Tris, 1 mM MgSO4, 0.1 mM EDTA, 44 mN H2SO4, pH 7.4); c(s) in Sedfit; octamer to 8 monomers

B1: Str enolase DB (Streptococcus pyogenes enolase, sequence of accession number NP_268959.1) (enzyme, UniProt P69949 1-435, looked up)
chain: MSIITDVYAREVLDSRGNPTLEVEVYTESGAFGRGMVPSGASTGEHEAVELRDGDKSRYLGLGTQKAVDNVNNIIAEAIIGYDVRDQQAIDRAMIALDGTPNKGKLGANAILGVSIAVARAAADYLEVPLYTYLGGFNTKVLPTPMMNIINGGSHSDAPIAFQEFMIMPVGAPTFKEGLRWGAEVFHALKKILKERGLVTAVGDEGGFAPKFEGTEDGVETILKAIEAAGYEAGENGIMIGFDCASSEFYDKERKVYDYTKFEGEGAAVRTSAEQVDYLEELVNKYPIITIEDGMDENDWDGWKVLTERLGKRVQLVGDDFFVTNTEYLARGIKENAANSILIKVNQIGTLTETFEAIEMAKEAGYTAVVSHRSGETEDSTIADIAVATNAGQIKTGSLSRTDRIAKYNQLLRIEDQLGEVAQYKGIKSFYNLKK
notes: PDB 3ZLH is the same protein with E77K; also called Streptococcal enolase; source: stored in saturated ammonium sulfate, dialyzed against TME-SO4
  stoichiometry N: 8
